Test results published in paper PMC6511868.

How the values were obtained:
[1] = target: uL23 as bait of the co-IP of Figure 1C (tag not told) (UniProt P04456); assay: co-immunoprecipitation, western blot quantification; settings: parent: 100
[2] = target: uS3-GFP (S. cerevisiae) (UniProt P05750); assay: co-IP; yeast lysates; GFP-Trap_A beads (GFP-tagged baits) or IgG-Sepharose (TAP-tagged baits), 3 h at 4°C, western blot; wild type and the strains sup45-2, rat8-2, rat7ΔN shifted to 37°C for 1 h; also 0.5 mg/ml cycloheximide for 30 min; also high copy RLI1
Chain of UniProt P05750 (P05750 whole entry): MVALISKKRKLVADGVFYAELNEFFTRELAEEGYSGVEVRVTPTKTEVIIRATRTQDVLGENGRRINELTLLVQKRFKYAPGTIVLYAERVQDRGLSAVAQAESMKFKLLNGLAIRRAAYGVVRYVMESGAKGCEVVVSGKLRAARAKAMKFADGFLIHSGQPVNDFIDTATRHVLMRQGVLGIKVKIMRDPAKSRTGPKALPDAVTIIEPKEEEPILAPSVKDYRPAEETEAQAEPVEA

Chain of UniProt P04456 (P04456 whole entry): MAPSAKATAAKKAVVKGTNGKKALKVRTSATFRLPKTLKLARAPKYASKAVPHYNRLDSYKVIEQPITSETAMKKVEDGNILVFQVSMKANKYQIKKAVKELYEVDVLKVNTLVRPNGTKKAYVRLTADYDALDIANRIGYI

Substance	percent of parent [1] [%]	co-precipitation relative to wild-type eRF1 [2]	co-precipitation relative to wild-type eRF1, with high copy RLI1 [2] [%]
eukaryotic release factor 1 (eRF1) (from UniProt P12385) sup45-2	46		
mutated eRF1 protein sup45-2 (from UniProt P12385 1-437) (natural protein)		0.25 of wild type	> 60
